In the domain aggregation screens of Martell et al. (2025):

Test: soluble fraction after stress (log2 fold change); higher = more stays soluble; pooled small domains, quantitative proteomics
Conditions: stress: 50 degC
In short: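 Pooled custom libraries of small protein domains were each held under stress at 50°C. The read-out, high-throughput quantitative proteomics, tracked how much of each protein stayed soluble. This is reported as a base-two log fold change used to indicate aggregation propensity. Higher values mean more protein remains in solution.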

Sequence	soluble fraction (log2)
HMITNMIIIMKPNASEEAIEKVKHLIESKGLQAHLSKGDEVTIVGVVGDKTRLHDSNIEISEGVDKIVNVT	0.317
HMSEATTVNYKYAVTISDLRIRKGPGTNYGSVGYTGKGVFTIVAEKGGWGKLKSGAGWISLNSKYGHKVS	-1.45
HMLNWINSDVLERFNSLTKEKQKAIVADTETRLNGLSQARFKVAKSSSNERLIAEFAIEINEAIMRAAAL	-1.49
HMKKKVDSENLLLDILKQMQPQASTNVLRKMLTNQRISVDDQIIHRAKHVVQEGQTVEIHPKP	0.00763
HMEDFDLSDTERKIIAQIGHGYSNKEIAQKLGFSEGTIRNYLSVILDKLDLRDRTQLAIWYLSR	-0.143
HMFGQRLRLARKRAGLSMQALAQRMSPPVTAQAISKYEADRMMPSSAVLVGLGKALGVSLDFLMGGQ	-0.835
HMSDLGEIEKIVDEVLAENITKVQEYKDGKKGLMGMFMGQIMKKSGGKADPKIANQLLTEKL	0.114
HMITLYDLLGVSKTASSQEIKTAFKKKALQYHPDKNDGNPDKEEIFKRINMAYQVLGQPQSRANYDFSITP	-0.321
HMQRLSRREIEVLHWIAEGKSDWQIGQILSISAKTVNYHTENLKRKFGVATRMQAVVSAIKQGAFVPGE	-4.43
HMPMINLYQRLNLPPTASRAEIEAALAQYRSELSTAEIRGVQEWLLVNEVRHRYDAKLRQEQPSFFI	-0.471
HMDNITIYSSNGKIYVNAIGGEKIELFNITGQKVAEKVAVSGINVLDAVYDITLVKVGSKVVKVV	-0.123
HMSEYNPGIYRVTDPALNIRTGPGVEYPVVGVIKDQGSYTITEIRNKSWGRLLSGAGSTAIKHIVFT	0.0941
HMTFPTEAKLTGDKVFVRSGPSTQSQRLTNLAINSVVTVLAREMGDMQYPWYKVRYSDGEGWVYGQYVEAI	-0.0237
HMVEKRLFPQISDAGKRLDLFLAGALAISRTMVVKIIKDGGVLVNGKAAKASYRLAGDEELLVSYEEP	0.395
HMESIGANIRRLRKERNMSQDELARKAFTNRSNINRYESGKMVPSADTTEKIEEALGVPAGTLAQ	0.132
HMLQLSDAISRVESFLQGQNRNLAFSIDENTERSVVTVLDSDTGDVIRQIPSEELLVLAKRIQELQQD	0.151
HMFENPRALLEMMISLGNEQGLINMARDIVSAGEFRRLELAAGGDRRKLARMLIDHLVEVAPRLP	-0.394
HMKPSKYTLAIDSIPVHVTRKQMKSIRLRVTPLGEVRVSAPYGVKDSEIVEMVRSRKLWIESQQRA	-0.992
HMEQLNKNIKFDNFLESLNFINKVSEVAEEENHHPDLKFGWGYADITIFTHAIKGLSEGDFVLAAKIDVI	0.269
HMNVDSLPGEKAVVIKTIDNLRGTGQAVVNGLEWSAKSKDETIIDEGKVVRIVAVEGVKLVVEEE	0.0762
HMNTFDLSKLEEIILASRDKAMKTKEFTELDNLKNLFITAGLDVQMSKNGIKLIKGPKFNSSLLEDF	-0.655
HMIDLPDIDIDFAKRTGVLEHITHTPARLETGKQHNTGVYFTDIPRGVDGLATMDHKRAEQLGYFKLDML	0.0268
HMLETHRRRQIILSLLRESGMLDVDEVAARLVVSPNTIRNDFNALAAEGLLRRIRGGATLAEP	-0.349
HMPPFTYHLERAKRKTVGFIVDERGVTVRAPRWVSVSEIEKMLQTKEAWIQKKLTEFHNWQKE	-3.11
HMLEPGIAVLKTLMSQYRLGVADLPELGSKSNVSKLLNAVEGKKLTRQHIEALSKRFAVSPALF	-0.195
HMRDLLPHFQRELQFLQTHRNEFAAAYPELGGRLATASDLLDDPHVERMVQSFALLAARVHKRLDDDF	0.206

Sequence	soluble fraction (log2)
HMHQGTIEVGSIVHIEGQKALGTILSLTQREAIVGLGALKTTIPLKRLHLATEAEARRHKKSVTPQEAV	0.0611
HMVVYQRVHDEILQALKDNVYPVGTLLPPEPELERIYSVSRTTVRRAIAKLSEEGYVQVRQGYGTMVLKN	-0.576
HMNREDYIKAIFKIAEREGEASNQRIADSLGVSRASASEMVKKLIQEGFVVAEGRQLSLSAEGERIA	0.0824
HMKDSKSALQEYALERKMGLPVYEVVDRSGPDHAPQFVIAVSLGEWRLEAKGASKRQAEQQAASLMLEEI	-0.353
HMETEQVEMIRVVGMHVDEAKKALLDLGLSPEIKYEESSSYDAGTVLRASVQDGLMIDKGTNIVLTVAEA	0.121
HMRPADTAAMLKYLSSGAVKGIGGALAGRIIEAFGDESIKVIEEDPARLATVKGITLKKAKEISEEMQRVN	0.0712
HMTGLSAQILAKLRDNHGVLPVSDKSDPAVISNLFGVSKGNFKKAIGGLYKEGQIVIHADRIEL	-0.0576
HMAQVVMPNVVGKTEKDATATLEGKNLKVNVEYNLDATSDDGIVKEQSIKSGENIDEGTEITLKVNKV	-1.07
HMTPAIEKTAVIVFINGKKYYVHTVKSGETLYSIAKAYKVDEKVIKEHNPNVADGLRIDQTVKIPVPEQVK	0.144
HMREVDKRYYKINIAGTDRIFTNVYRVGDRYSAYEADKNGKPGKFLYSLSQAEIDRAVISGSFDFK	0.105
HMDLDEELDFLSDADESATKLDLARAYIDMGDKDGARDILAEVLEEGRSEQKREAQALLDSI	0.406
HMIQAGDLVFIWNPKKGDNFLIKVTPGMSQGTHFGQIKHTELMEREYGEGIVTPKGEVYYLLRPTLAGYTR	-0.973
HMGTVKWFNATKGFGFIVPSDGGKDVFVHITAVQKAGLQGLNEGQKVSYEVAMERGKAAATNLR	-0.726
HMENPMIEQLKQFIEAQGLTQGQLAAKLGVSTATVNQYLQGKYKGDTAALDAKAAQLMARSREK	0.103
HMSDTFTITTESGRIDKIITAHETTHTRSQVQKWLQDGLVTVNGNPVKANFKVTAGDVVTVTIPEVK	0.104
HMQQLTQRELTLLRLLANGYNNRQIAEQLQLAESTVKNNLSALFQKIGVRDRTQAVLFAISQGLVP	-0.656
HMSFVEVTVSELKNYVNSHARIKLKSGKEFKGFILDANEEGVIIKVQLRGGTAESTISYNRIDRAAVF	-1.69
HMDKQGGWLTMAEAAEKLGVTHHVIRRLIKEKILPAEQVMRHAPHQIRIVDLESDAVAEALRHR	-0.215
HMKIDNPEYQKIMDMIPYFFQTRNYDEAIEALSYVIEQEPSFSEAYNKRATFYFMMGDFENSMKDIESTLA	-0.155
HMPGRLSRREVEVIELTARGLPAAEMAVRLGISANTIEFHRRRIMQKLGVANAAEMVRRATELGW	-2.1
HMPASDPNEKQILRFLTEHQVITRKETQALLDVSQSTAGRVLKAMVDNGQIKQLGGSRNTRYELPM	-0.183
HMKEEDYEVFMRLINVRGIGPKSALNILGVISGQEMIQAIENDDIKRLKSLPGIGAKTAGQIVLDLKGKFV	-0.649
HMIANDDEIRKVVLEVIEEQPKAVEDVKNGRDRILDFLVGQVMKKTRGKANPSLASNLMKEEIEK	0.177
HMKTGTVQDFIAKYGMSSKSPSSWFNSLTQIQKAEAKALKAQSGLTWNEWYEKNIYNGDGSNL	0.0263
HMEAADAGTLAQRAAQYFNEKNYAAALDALERRAAMAPETTELRMMRGWSLLHLNRKDEARNAFATLG	-0.0562
HMDSMATVPDLVGKTEDEAKALANDAHLGVQMAGEEASDQEKGKISRQETAAGTQVAEYTTVKYWVSTGTQ	0.124

Sequence	soluble fraction (log2)
HMAKDSQSADVLQAIFDGSKVLNGLALDQDMRWDLINGLVMSGRLGVEAIEAEAAKLAKLVEELEFR	-0.892
HMAMESDELETLVDQLIVDHPDEWSRFVGGDDGDRKKMQGFFTGQIMKATKGQADGRAVAQLLGQKSA	0.0334
HMEQMSPYPNPSKGKIQFHNQEPMDIKVFNSLGQIVFEQRILSRAILDLSRLSPGQYIVQAGEQKNIWIK	-0.699
HMGGEEPYGSGSLRLAAGAVVPSGYTIKGNEDSMLYHTTESPWYKQTIAEVWFNAESAAQRAGFTRWDAKD	-0.114
HMIPLSDEETILLKLLEATETHLDALIRGSQLSAAKVSVVLMGMEMKRLVKRLPGQMYQRWD	-1.84
HMNTLPASVQPKKGRLYAVIQTKENGKSKPVWRSLGLPEGSNKSKVNKAFREVVKQFEEEYAERLAR	0.0511
HMNDITVNVEDSKLIVTSNNPEKLPLYIMDIQGHILDKSEITAGTYSFPISDRGTYIVRIGENVYKVI	0.0386
HMSQNVQDVFLNHVRKSKNPVTVFLVNGVKLQGIITWFDNFSVLLRREGHTQLVYKHAISTVMPSGPIQLF	0.0729
HMSLEDNEVIQRMKVILDRFDEETAVDRTTAFKAVLDHIGKMDAESKTLEHMAEMLEALLDKVLEE	-0.237
HMNETSRTRALNILGLKATATQEDIKKAYRSLAKEYHPDKLVGVSEGVKKISEEKFREINEAYEYLI	0.384
HMINFKVKNVQDVGSRLDKFLVTNIPEFSRSKIQKHIKNGKVMVNGLLKKTGYKLEINDEINILNN	-0.276
HMSVLVLPMLKELTHEDREVVELFYLNDMSVREIALIISVPIGTVKSRLHRARAQLKHQIVNLNQ	-3.03
HMNEDYFTIAGYASLRGVNIDTSKANMLGRKATKLSREYGYDIGKVTDTRFGKVNSYHLDILKSIFEF	-0.477
HMTSLTDDELSVVMLVREREISFDEITSETGFDAARLNSVLTMLKIKGIIDETTGKHYRISGGA	0.146
HMSPSTNKTFSFSKENISIGQTVFIKKLNQNATVLTLPNKSNQLQVQFGVITMNVKLEDLALPTN	-0.171
HMNTLPTDELMKYGIINEDLSFSKKLNADDIQKFLQGYTIVADNDKNRATFQLTENNTKLKVIFLER	-0.438
HMNDILETISNQIRDLRVSKKITQQELAERTNLSVPYISQIENGHRNISLETFIKIVDALDIPLSDFFLP	-1.03
HMFINTVELGRAIKRRREELGLSLRDVADVTNVSASTLSRIENGTGKPDADNIARLTGWLDMPIDRVM	-0.0139
HMTSTEQQIEQFIGTLVSLGGSAGNQRLLEALGWQDSIYQRVKQQLIDDGRIRPGRGRGGSVVLAE	-0.074
HMLTRRQSEVLDFIRQFAESESMPPTLHEIAKGMGFSSDNAARDHVRALARKGAIDLVGGTSRGIRLR	-0.354
HMNTPAENFDKAVEKYKSTNSATEKDAAFKVIEDEWIKLSDEEKKERQDEYDSIFESEGDRV	0.126
HMSAPNPGQMHSWTDTQGRTLQATFIKADATTVTLNWNGRIVPIPLANLNAASQKLARELASAS	0.181
HMIDNKIIRSLRQKRNMTLEELAKKANISVSYLSEIELGKKQPSLETINKLSQALNISREGLI	-0.0409
HMKGALQIAIEEGFNWNLDKKYWNIVQSTVIAKRLGLKTTSGLKEAIEGMGGEYKRTKKARGYLVPTFKD	-2.31
